This note sets out measurements from patent US20150344570A1 (published 2015).

Positions count from the first letter of the chain named. Names and notes keep the numbering of the source. Like-named read-outs stand apart in the source and are kept apart here.

Test [1] deals with T1, FcγRIIa H extracellular domain with C-terminal His tag (human, UniProt P12318 34-217).
T1 construct: extracellular domain; Soluble receptor, H131 allotype; also called FcgRIIa H; FcgRIIaH; not shown: His tag at the C terminus
T1 sequence (looked up): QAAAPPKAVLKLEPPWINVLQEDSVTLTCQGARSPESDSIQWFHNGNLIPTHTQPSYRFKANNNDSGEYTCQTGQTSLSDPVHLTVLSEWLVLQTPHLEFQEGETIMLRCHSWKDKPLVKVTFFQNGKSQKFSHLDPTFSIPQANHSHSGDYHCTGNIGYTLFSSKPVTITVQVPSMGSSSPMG
Briefly: SPR (Biacore); KD of H240-Kn061/H240-Hl071/L73-k0 divided by KD of the variant. Background: Surface plasmon resonance follows binding to a sensor surface in real time, without labels.

Test [2] has as its target T2, FcγRIIIa F extracellular domain with C-terminal His tag (human, UniProt P08637 17-208).
T2 construct: extracellular domain; Soluble receptor, F158 allotype; also called FcgRIIIa F; FcgRIIIaF; not shown: His tag at the C terminus
The test is described as above.

Test [3] concerns the target T3, FcγRIIb extracellular domain with C-terminal His tag (human, UniProt P31994 43-217).
T3 construct: extracellular domain; also called FcgRIIb; CD32B; not shown: His tag at the C terminus
T3 sequence (looked up): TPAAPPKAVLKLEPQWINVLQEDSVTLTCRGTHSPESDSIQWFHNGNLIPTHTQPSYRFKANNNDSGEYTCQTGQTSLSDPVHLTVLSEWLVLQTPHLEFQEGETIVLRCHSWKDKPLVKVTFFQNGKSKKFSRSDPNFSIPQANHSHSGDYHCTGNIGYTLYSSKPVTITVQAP
The description is as above.

Test [4] concerns the target T4, FcγRIIIa V extracellular domain with C-terminal His tag (human, UniProt P08637 17-208).
T4 construct: extracellular domain; Soluble receptor, V158 allotype; also called FcgRIIIa V; FcgRIIIaV; not shown: His tag at the C terminus
The test is described as above.

In test [5] the target is T5, FcγRIIa R extracellular domain with C-terminal His tag (human, UniProt P12318 34-217).
T5 construct: extracellular domain; Soluble receptor, R131 allotype; also called FcgRIIa R; FcgRIIaR; not shown: His tag at the C terminus
T5 sequence (looked up): T1 sequence (looked up) with H134R
The test is described as above.

Test [6] addresses T6, FcgRIIa H type extracellular domain, C-terminal His tag (human, UniProt P12318 34-217).
T6 construct: extracellular domain; Soluble analyte in Biacore; also called FcγRIIa H; FcγRIIa(H); not shown: His tag at the C terminus
T6 sequence (looked up): T1 sequence (looked up)
Briefly: SPR (Biacore); KD of H240-Kn120/H240-Hl068/L73-k0 divided by KD of the variant. As to the method:
(§1) H240-Kn179/H240-H1089/L73-k0, H240-Kn180/H240-Hl089/L73-k0, H240-Kn192/H240-Hl204/L73-k0, and H240-Kn193/H240-Hl204/L73-k0 were prepared by combining each of H240-Kn192 and H240-Kn193 as an H chain, L73-k0 as the L chain, and H240-Hl089 and H240-Hl204 as the other H chain according to the method described in Reference Example 1. The variants described above were assessed for their binding to FcγR according to the method described in Reference Example 8.
(§2) Analysis of interaction between objective antibody and the FcγR was carried out using Biacore T100 (GE Healthcare), Biacore T200, Biacore A100, and Biacore 4000. HBS-EP+ (GE Healthcare) was used as the running buffer, and the measurement temperature was set to 25° C. Chips produced by immobilizing the antigen peptide by the amine coupling method to a Series S sensor Chip CM5 (GE Healthcare), chips produced by allowing preliminarily biotinylated antigen peptides to interact with and immobilize onto a Series S Sensor Chip SA (certified) (GE Healthcare), chips produced by immobilizing Protein L (ACTIGEN, BioVision) to Series S Sencor Chip CM5 (GE Healthcare), or chips produced by immobilizing Protein A/G (Thermo Scientific) to Series S Sencor Chip CM5 (GE Healthcare) were used. Antibodies of interest were captured onto these chips, and allowed to interact to each FcγR diluted with running buffer. To regenerate and repeatedly use the chip, the antibodies captured onto the chip were washed off by reacting 10 mM glycine-HCl, pH 1.5.

The target in test [7] is T7, FcgRIIIa V type extracellular domain, C-terminal His tag (human, UniProt P08637 17-208).
T7 construct: extracellular domain; Soluble analyte in Biacore; also called FcγRIIIa V; not shown: His tag at the C terminus
The test is described as above. As to the method: as §1, §2

The target of test [8] is T8, FcgRIIb extracellular domain, C-terminal His tag (human, UniProt P31994 43-217).
T8 construct: extracellular domain; Soluble analyte in Biacore; also called FcγRIIb; not shown: His tag at the C terminus
T8 sequence (looked up): T3 sequence (looked up)
The description is as above. As to the method: as §1, §2

Test [9] addresses T9, FcgRIIa R type extracellular domain, C-terminal His tag (human, UniProt P12318 34-217).
T9 construct: extracellular domain; Soluble analyte in Biacore; also called FcγRIIa R; FcγRIIa(R); not shown: His tag at the C terminus
T9 sequence (looked up): T1 sequence (looked up) with H134R
The test is described as above. As to the method: as §1, §2

In test [10] the target is T10, FcgRIIIa F type extracellular domain, C-terminal His tag (human, UniProt P08637 17-208).
T10 construct: extracellular domain; Soluble analyte in Biacore; also called FcγRIIIa F; not shown: His tag at the C terminus
The description is as above. As to the method:
as §1, §2

Test [11] has as its target T6, FcgRIIa H type extracellular domain, …. The test is described as above. As to the method:
as §2
This is another data set of the same source.

In test [12] the target is T7, FcgRIIIa V type extracellular domain, …. Described as above. As to the method:
as §2
This is another data set of the same source.

For test [13], the target named is T8, FcgRIIb extracellular domain, …. The test is described as above. As to the method:
as §2
The source holds these as a separate data set.

Test [14] has as its target T9, FcgRIIa R type extracellular domain, …. Described as above. The procedure:
as §2
This is another data set of the same source.

Test [15] deals with T10, FcgRIIIa F type extracellular domain, …. Described as above. The procedure:
as §2
The source holds these as a separate data set.

T2 sequence (P08637 17-208): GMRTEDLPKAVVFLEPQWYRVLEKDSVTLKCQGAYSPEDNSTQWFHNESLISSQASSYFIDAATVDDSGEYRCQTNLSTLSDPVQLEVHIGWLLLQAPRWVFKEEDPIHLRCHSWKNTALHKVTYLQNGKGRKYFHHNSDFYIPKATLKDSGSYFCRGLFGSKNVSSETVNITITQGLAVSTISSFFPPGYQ
T10 sequence (P08637 17-208): as above
T7 sequence (P08637 17-208 F176V): as the sequence (P08637 17-208) above, with F160V counted along it
T4 sequence (P08637 17-208 F176V): as the sequence (P08637 17-208) above, with F160V counted along it

B1: H240-Kn061/H240-Hl071/L73-k0 variant with V240F introduced into H chain H240-Hl071 (antibody, human IgG1, kappa)
heavy 1: QDQLVQSGAEVKKPGASVKVSCKASGFNIKDTYIQWVRQAPGQGLEWMGRIDPLRKQTKYREKFEGRVTITADTSTNTAYMELSSLRSEDTAVYYCVRSGREFDYWGQGTLVTVSSASTKGPSVFPLAPSSKSTSGGTAALGCLVKDYFPEPVTVSWNSGALTSGVHTFPAVLQSSGLYSLSSVVTVPSSSLGTQTYICNVNHKPSNTKVDKKVEPKSCDKTHTCPPCPAPEYYWGPSVFLFPPKPKDTLMISRTPEVTCVVVDVSDEDPEVKFNWYVDGVEVHNAKTKPREEQYNATYRVVSVLTVLHQDWLNGKEYKCKVSNKALPAPIEKTISKAKGQPREPQVCTLPPSRDELTKNQVSLWCLVKGFYPSDIAVEWESNGQPENNYKTTPPVLDSDGSFFLYSKLTVDKSRWQQGNVFSCSVMHEALHNHYTQKSLSLSP
heavy 2: QDQLVQSGAEVKKPGASVKVSCKASGFNIKDTYIQWVRQAPGQGLEWMGRIDPLRKQTKYREKFEGRVTITADTSTNTAYMELSSLRSEDTAVYYCVRSGREFDYWGQGTLVTVSSASTKGPSVFPLAPSSKSTSGGTAALGCLVKDYFPEPVTVSWNSGALTSGVHTFPAVLQSSGLYSLSSVVTVPSSSLGTQTYICNVNHKPSNTKVDKKVEPKSCDKTHTCPPCPAPELLGGPSFFLFPPKPKDTLMISRTPEVTCVVVDVSHEDPEVKFNWYVDGVEVHNAKTKPREEQYNSTYRVVSVLTVLHQDWLNGKEYKCKVSNDALPMPIEETISKAKGQPREPQVYTLPPSRCELTKNQVSLSCAVKGFYPSDIAVEWESNGQPENNYKTTPPVLDSDGSFFLVSKLTVDKSRWQQGNVFSCSVMHEALHNHYTQKSLSLSP
light: DIQMTQSPSSLSASVGDRVTITCRASQDIHKYIAWYQQKPGQAPRLLIQYTSTLQPGVPSRFSGSGSGTDYTFTISSLQPEDIATYYCLQYEQLRTFGGGTKVEIKRTVAAPSVFIFPPSDEQLKSGTASVVCLLNNFYPREAKVQWKVDNALQSGNSQESVTEQDSKDSTYSLSSTLTLSKADYEKHKVYACEVTHQGLSSPVTKSFNRGEC
notes: Point variant of the heterodimerized anti-epiregulin IgG1 template; also called H240-Hl071 V240F
For the molecule B1, the “relative KD” value in test [1] is 0.9; in [2], 1.4; in test [3], 0.9; in test [4], 1; in test [5], 1.1.

B2: H240-Kn120/H240-Hl068/L73-k0 (antibody, human IgG1, kappa)
heavy 1: B1 heavy 1 with S238M, A326D
heavy 2: B1 heavy 2 with F239V, D269E, M329K
light: B1 light
notes: Heterodimerized (knobs-into-holes) anti-epiregulin IgG1 antibody; also called H240-Kn120/H240-HI068/L73-k0
Take B2: the “relative KD” value in [6], in [7], in [8], in [9], in test [10] and in test [11] was 1 throughout. Further, the “relative KD” value in [12], in test [13], in [14] and in test [15] was 1 throughout.

B3: H240-Kn061/H240-Hl071/L73-k0 variant with Y234E introduced into H chain H240-Kn061 (antibody, human IgG1, kappa)
heavy 1: B1 heavy 1 with Y233E
heavy 2: B1 heavy 2 with F239V
light: B1 light
notes: Point variant of the heterodimerized anti-epiregulin IgG1 template; also called H240-Kn061 Y234E
Consider B3, for which the “relative KD” value in [1] amounted to 0.7; in test [2] it was 1.9; in [3], 0.5; in [4], 1.6; in test [5] it was 1.4.

B4: H240-Kn120/H240-Hl086/L73-k0 (antibody, human IgG1, kappa)
heavy 1: B1 heavy 1 with S238M, A326D
heavy 2: B1 heavy 2 with G235I, F239V, D269E, M329K
light: B1 light
notes: also called H240-Kn120/H240-HI086/L73-k0
In the case of B4, the “relative KD” value in test [11] stood at 0.8; in test [12] it was 0; in test [13], 0.3; in test [14] it was 0.9; in test [15] it was 0.1.

B5: H240-Kn120/H240-Hl085/L73-k0 (antibody, human IgG1, kappa)
heavy 1: B1 heavy 1 with S238M, A326D
heavy 2: B1 heavy 2 with G235V, F239V, D269E, M329K
light: B1 light
notes: also called H240-Kn120/H240-HI085/L73-k0
In the case of B5, the “relative KD” value in [11] was 0.9; in test [12], 0.1; in test [13], 0.4; in test [14], 1.1; in test [15], 0.1.

B6: H240-Kn061/H240-Hl071/L73-k0 variant with Y235N introduced into H chain H240-Kn061 (antibody, human IgG1, kappa)
heavy 1: B1 heavy 1 with Y234N
heavy 2: B1 heavy 2 with F239V
light: B1 light
notes: Point variant of the heterodimerized anti-epiregulin IgG1 template; also called H240-Kn061 Y235N
For B6, the “relative KD” value in test [1] was 0.7; in [2], 1.3; in test [3], 0.7; in test [4] it was 2; in test [5], 1.

B7: H240-Kn120/H240-Hl073/L73-k0 (antibody, human IgG1, kappa)
heavy 1: B1 heavy 1 with S238M, A326D
heavy 2: B1 heavy 2 with G235S, F239V, D269E, M329K
light: B1 light
notes: also called H240-Kn120/H240-HI073/L73-k0
B7: the “relative KD” value in [11] came out at 2; in test [12], 0.2; in test [13], 0.7; in test [14] it was 1.3; in [15], 0.3.
